Measured values: article PMC7994000 (Biochimica et biophysica acta. Proteins and proteomics, 2020)

T1: Full-length human IKK2 (human, UniProt O14920 1-756)
T1 sequence (looked up): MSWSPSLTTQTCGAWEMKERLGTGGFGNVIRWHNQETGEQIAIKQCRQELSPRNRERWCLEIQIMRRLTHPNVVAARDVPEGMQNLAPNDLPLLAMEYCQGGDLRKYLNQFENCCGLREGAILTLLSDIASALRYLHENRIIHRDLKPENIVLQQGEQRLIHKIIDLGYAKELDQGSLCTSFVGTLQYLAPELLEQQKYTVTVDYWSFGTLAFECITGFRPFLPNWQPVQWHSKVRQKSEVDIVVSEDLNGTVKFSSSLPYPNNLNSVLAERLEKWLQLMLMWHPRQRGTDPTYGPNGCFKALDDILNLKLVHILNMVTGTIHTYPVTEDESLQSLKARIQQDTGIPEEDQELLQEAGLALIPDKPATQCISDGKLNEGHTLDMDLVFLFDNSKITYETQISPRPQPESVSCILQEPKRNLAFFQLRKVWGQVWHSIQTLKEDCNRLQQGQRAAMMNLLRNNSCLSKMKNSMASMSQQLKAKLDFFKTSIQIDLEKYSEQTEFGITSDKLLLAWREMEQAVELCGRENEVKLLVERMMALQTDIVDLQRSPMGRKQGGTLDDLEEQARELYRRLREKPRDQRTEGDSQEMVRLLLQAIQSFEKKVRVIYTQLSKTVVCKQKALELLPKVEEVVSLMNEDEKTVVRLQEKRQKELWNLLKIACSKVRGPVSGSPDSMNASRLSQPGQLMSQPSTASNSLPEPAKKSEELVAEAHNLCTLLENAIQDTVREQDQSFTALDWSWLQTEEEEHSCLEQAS

B1: NEMO^1–110 (domain or fragment, human, UniProt Q9Y6K9 1-110, looked up)
chain: MNRHLWKSQLCEMVQPSGGPAADQDVLGEESPLGKPAMLHLPSEQGAPETLQRCLEENQELRDAIRQSNQILRERCEELLHFQASQREEKEFLMCKFQEARKLVERLGLE
B2: NEMO^1–250 (domain or fragment, human, UniProt Q9Y6K9 1-250, looked up)
chain: MNRHLWKSQLCEMVQPSGGPAADQDVLGEESPLGKPAMLHLPSEQGAPETLQRCLEENQELRDAIRQSNQILRERCEELLHFQASQREEKEFLMCKFQEARKLVERLGLEKLDLKRQKEQALREVEHLKRCQQQMAEDKASVKAQVTSLLGELQESQSRLEAATKECQALEGRARAASEQARQLESEREALQQQHSVQVDQLRMQGQSVEAALRMERQAASEEKRKLAQLQVAYHQLFQEYDNHIKSSVV
B3: NEMO^1–210 (domain or fragment, human, UniProt Q9Y6K9 1-210, looked up)
chain: MNRHLWKSQLCEMVQPSGGPAADQDVLGEESPLGKPAMLHLPSEQGAPETLQRCLEENQELRDAIRQSNQILRERCEELLHFQASQREEKEFLMCKFQEARKLVERLGLEKLDLKRQKEQALREVEHLKRCQQQMAEDKASVKAQVTSLLGELQESQSRLEAATKECQALEGRARAASEQARQLESEREALQQQHSVQVDQLRMQGQSVE
B4: NEMO^250–365 (domain or fragment, human, UniProt Q9Y6K9 250-365, looked up)
chain: VGSERKRGMQLEDLKQQLQQAEEALVAKQEVIDKLKEEAEQHKIVMETVPVLKAQADIYKADFQAERQAREKLAEKKELLQEQLEQLQREYSKLKASCQESARIEDMRKRHVEVSQ
B5: NEMO^1–130 (domain or fragment, human, UniProt Q9Y6K9 1-130, looked up)
chain: MNRHLWKSQLCEMVQPSGGPAADQDVLGEESPLGKPAMLHLPSEQGAPETLQRCLEENQELRDAIRQSNQILRERCEELLHFQASQREEKEFLMCKFQEARKLVERLGLEKLDLKRQKEQALREVEHLKR
B6: NEMO^1–280 (domain or fragment, human, UniProt Q9Y6K9 1-280, looked up)
chain: MNRHLWKSQLCEMVQPSGGPAADQDVLGEESPLGKPAMLHLPSEQGAPETLQRCLEENQELRDAIRQSNQILRERCEELLHFQASQREEKEFLMCKFQEARKLVERLGLEKLDLKRQKEQALREVEHLKRCQQQMAEDKASVKAQVTSLLGELQESQSRLEAATKECQALEGRARAASEQARQLESEREALQQQHSVQVDQLRMQGQSVEAALRMERQAASEEKRKLAQLQVAYHQLFQEYDNHIKSSVVGSERKRGMQLEDLKQQLQQAEEALVAKQEV
B7: NEMO^111–250 (domain or fragment, human, UniProt Q9Y6K9 111-250, looked up)
chain: KLDLKRQKEQALREVEHLKRCQQQMAEDKASVKAQVTSLLGELQESQSRLEAATKECQALEGRARAASEQARQLESEREALQQQHSVQVDQLRMQGQSVEAALRMERQAASEEKRKLAQLQVAYHQLFQEYDNHIKSSVV

Biological target: the molecule itself
Experiment: SEC-MALS

Binder	stoichiometry N	binding result
B1	2	
B2	2	
B3		binds
B4	2	
B5	2	
B6		binds
B7	2	

These binders were tested against T1, Full-length human IKK2 (assay: SEC-MALS).

binding result	Binder
binds	B2
binds	B3
binds	B5
binds	B6
